Experimental findings from article PMC4410316 are described below.

Where two headings read alike, the source gives them in different places.

Data set [1] addresses T1, human thrombin (HT) (Homo sapiens (human), UniProt P00734;P00734 328-363;364-622). The experiment in a line: nanopore single-molecule titration.
For data set [2], the target named is T1, human thrombin (HT). The data set is described as follows: nanopore single-molecule titration. The source holds these as a separate data set.
Data set [3] concerns the target T1, human thrombin (HT). The experiment in a line: nanopore single-molecule titration. The source holds these as a separate data set.
Data set [4] deals with T1, human thrombin (HT). The data set is described as follows: nanopore single-molecule.
For data set [5], the target named is T1, human thrombin (HT). The experiment in a line: nanopore single-molecule titration. This is another data set of the same source.

Take GGTTGGTGTGGATGG (structured_DNA) [TBA-T12A]: the Kd (as a rule, the constant that tells how readily two partners part at equilibrium) in the data set with human thrombin (HT) [1] was determined as 7 ± 1 nM.
Take GGTTGGTGTGGTTGG (structured_DNA) [TBA]: the dissociation constant (Kd) with human thrombin (HT) [2] was 8 ± 1 nM; with human thrombin (HT) [3] it was 13 ± 3 nM.
Take CACCATCACCACCATCAT (ssDNA) [Random DNA]: the binding result in the data set with human thrombin (HT) [4] was “no binding”.
GGATGGTGTGGTTGG (structured_DNA) [TBA-T3A] returned a Kd with human thrombin (HT) [5] of 6 ± 1 nM.
